Measurements taken from PMC8548392, “Miniature type V-F CRISPR-Cas nucleases enable targeted DNA modification in cells” (Nature Communications, 2021).

Columns and labels:
[1] = target: AsCas12f1 (Acidibacillus sulfuroxidans Cas12f1) (Acidibacillus sulfuroxidans); assay: mass photometry; binary complex with gRNA; 1 µM Cas12f1 protein and 500 nM gRNA in complex assembly buffer (10 mM Tris-HCl pH 7.5, 100 mM NaCl, 1 mM EDTA, 1 mM DTT), 30 min at 37 °C, then diluted 1:10
[2] = target: AsCas12f1 (Acidibacillus sulfuroxidans Cas12f1) (Acidibacillus sulfuroxidans); assay: mass photometry; ternary complex with gRNA and dsDNA target; 200 nM Cas12f1 RNP and 25 nM DNA in binding buffer (40 mM Tris-HAc pH 8.4, 5 mM Mg acetate), 30 min at 45 °C, then diluted 1:10
[3] = target: the molecule itself; assay: mass photometry; binary complex with gRNA; 1 µM Cas12f1 protein and 500 nM gRNA in complex assembly buffer (10 mM Tris-HCl pH 7.5, 100 mM NaCl, 1 mM EDTA, 1 mM DTT), 30 min at 37 °C, then diluted 1:10
dSpCas12f1 [4] = target: T1, dSpCas12f1 (Syntrophomonas palmitatica, UniProt P0DW62 1-497, D228A); assay: mass photometry; ternary 2:1:1, 5 mM Mg2+, incubated at 45 C; EMSA: 40 mM Tris, 20 mM acetic acid pH 8.4, 1 mM EDTA, 0.1 mg/ml BSA, 10% glycerol, 5 mM Mg acetate, 1 nM DNA, 0-250 nM RNP, 30 min at room temperature or as indicated. Mass photometry: binary in 10 mM Tris-HCl pH 7.5, 100 mM NaCl, 1 mM EDTA, 1 mM DTT, 37 C; ternary in 40 mM Tris-acetate pH 8.4, 5 mM Mg acetate, 45 C; settings: protein: recombinant; tags: 10xHis-MBP-TEV tag removed; chain copies: 2; label: 32P 5'-end in EMSA; guide RNA + DNA duplex
T1 sequence: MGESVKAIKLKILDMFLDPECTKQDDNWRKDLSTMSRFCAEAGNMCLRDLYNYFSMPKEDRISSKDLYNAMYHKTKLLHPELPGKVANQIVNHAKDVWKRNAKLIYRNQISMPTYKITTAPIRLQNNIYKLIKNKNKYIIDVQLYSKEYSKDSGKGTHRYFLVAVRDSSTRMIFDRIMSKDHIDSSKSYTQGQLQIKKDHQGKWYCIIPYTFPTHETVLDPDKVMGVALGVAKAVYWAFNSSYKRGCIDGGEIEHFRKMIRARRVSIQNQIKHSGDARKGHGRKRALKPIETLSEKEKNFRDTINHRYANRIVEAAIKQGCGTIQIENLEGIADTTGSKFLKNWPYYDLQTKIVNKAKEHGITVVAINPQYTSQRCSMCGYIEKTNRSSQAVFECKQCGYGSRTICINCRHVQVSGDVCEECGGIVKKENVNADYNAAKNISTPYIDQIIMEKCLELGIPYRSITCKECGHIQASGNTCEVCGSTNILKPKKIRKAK

dSpCas12f1 [5] = target: T1, dSpCas12f1; assay: EMSA; 5 mM Mg2+, room temperature; EMSA: 40 mM Tris, 20 mM acetic acid pH 8.4, 1 mM EDTA, 0.1 mg/ml BSA, 10% glycerol, 5 mM Mg acetate, 1 nM DNA, 0-250 nM RNP, 30 min at room temperature or as indicated. Mass photometry: binary in 10 mM Tris-HCl pH 7.5, 100 mM NaCl, 1 mM EDTA, 1 mM DTT, 37 C; ternary in 40 mM Tris-acetate pH 8.4, 5 mM Mg acetate, 45 C; settings: protein: recombinant; tags: 10xHis-MBP-TEV tag removed; chain copies: 2; label: 32P 5'-end; guide RNA + ssDNA
dAsCas12f1 [6] = target: T2, dAsCas12f1 (Acidibacillus sulfuroxidans, UniProt A0A2U3D0N8 1-422, D225A); assay: mass photometry; ternary 2:1:1, 5 mM Mg2+, incubated at 45 C; EMSA: 40 mM Tris, 20 mM acetic acid pH 8.4, 1 mM EDTA, 0.1 mg/ml BSA, 10% glycerol, 5 mM Mg acetate, 1 nM DNA, 0-250 nM RNP, 30 min at room temperature or as indicated. Mass photometry: binary in 10 mM Tris-HCl pH 7.5, 100 mM NaCl, 1 mM EDTA, 1 mM DTT, 37 C; ternary in 40 mM Tris-acetate pH 8.4, 5 mM Mg acetate, 45 C; settings: protein: recombinant; tags: 10xHis-MBP-TEV tag removed; chain copies: 2; label: 32P 5'-end in EMSA; guide RNA + DNA duplex
T2 sequence: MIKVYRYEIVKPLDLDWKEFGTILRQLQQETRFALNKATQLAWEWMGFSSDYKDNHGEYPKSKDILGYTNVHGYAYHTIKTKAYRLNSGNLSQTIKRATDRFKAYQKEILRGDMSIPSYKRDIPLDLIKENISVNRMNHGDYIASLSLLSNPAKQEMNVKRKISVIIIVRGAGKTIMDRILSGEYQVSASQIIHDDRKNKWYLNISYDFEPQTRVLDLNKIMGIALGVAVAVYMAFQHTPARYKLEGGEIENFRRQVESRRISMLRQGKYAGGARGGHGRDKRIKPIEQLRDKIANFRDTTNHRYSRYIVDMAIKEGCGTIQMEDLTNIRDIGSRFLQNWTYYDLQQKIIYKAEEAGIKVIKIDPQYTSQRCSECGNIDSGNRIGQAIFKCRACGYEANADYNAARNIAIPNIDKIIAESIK

dAsCas12f1 [7] = target: T2, dAsCas12f1; assay: EMSA; 5 mM Mg2+, room temperature; EMSA: 40 mM Tris, 20 mM acetic acid pH 8.4, 1 mM EDTA, 0.1 mg/ml BSA, 10% glycerol, 5 mM Mg acetate, 1 nM DNA, 0-250 nM RNP, 30 min at room temperature or as indicated. Mass photometry: binary in 10 mM Tris-HCl pH 7.5, 100 mM NaCl, 1 mM EDTA, 1 mM DTT, 37 C; ternary in 40 mM Tris-acetate pH 8.4, 5 mM Mg acetate, 45 C; settings: protein: recombinant; tags: 10xHis-MBP-TEV tag removed; chain copies: 2; label: 32P 5'-end; guide RNA + ssDNA
dSpCas12f1 [8] = target: T1, dSpCas12f1; assay: mass photometry; binary complex 179 kDa, 2:1 protein:gRNA; EMSA: 40 mM Tris, 20 mM acetic acid pH 8.4, 1 mM EDTA, 0.1 mg/ml BSA, 10% glycerol, 5 mM Mg acetate, 1 nM DNA, 0-250 nM RNP, 30 min at room temperature or as indicated. Mass photometry: binary in 10 mM Tris-HCl pH 7.5, 100 mM NaCl, 1 mM EDTA, 1 mM DTT, 37 C; ternary in 40 mM Tris-acetate pH 8.4, 5 mM Mg acetate, 45 C; settings: protein: recombinant; tags: 10xHis-MBP-TEV tag removed; chain copies: 2; single chain, folded

Molecule: AsCas12f1 (Acidibacillus sulfuroxidans Cas12f1) (from UniProt A0A2U3D0N8 1-422) (enzyme)
- stoichiometry N [1]: 2
- stoichiometry N [2]: 2

B1: Nuclease inactivated or dead (d) SpCas12f1 (D228A) (enzyme, Syntrophomonas palmitatica, UniProt P0DW62 1-497, looked up)
chain: MGESVKAIKLKILDMFLDPECTKQDDNWRKDLSTMSRFCAEAGNMCLRDLYNYFSMPKEDRISSKDLYNAMYHKTKLLHPELPGKVANQIVNHAKDVWKRNAKLIYRNQISMPTYKITTAPIRLQNNIYKLIKNKNKYIIDVQLYSKEYSKDSGKGTHRYFLVAVRDSSTRMIFDRIMSKDHIDSSKSYTQGQLQIKKDHQGKWYCIIPYTFPTHETVLDPDKVMGVALGVAKAVYWAFNSSYKRGCIDGGEIEHFRKMIRARRVSIQNQIKHSGDARKGHGRKRALKPIETLSEKEKNFRDTINHRYANRIVEAAIKQGCGTIQIENLEGIADTTGSKFLKNWPYYDLQTKIVNKAKEHGITVVAINPQYTSQRCSMCGYIEKTNRSSQAVFECKQCGYGSRTICINCRHVQVSGDVCEECGGIVKKENVNADYNAAKNISTPYIDQIIMEKCLELGIPYRSITCKECGHIQASGNTCEVCGSTNILKPKKIRKAK
notes: SpCas12f1, type V-F CRISPR-Cas nuclease of Syntrophomonas palmitatica, 497 aa, with D228A in the RuvC active site; The tag was removed at a TEV site (ENLYFQS), so a residue of the site may remain at the N-terminus; also called dCas12f1; source: E. coli Arctic Express (DE3), purified (Ni2+ HiTrap chelating, heparin, TEV cleavage, heparin); not shown: 10xHis, N-terminal, cleaved; MBP, N-terminal, …
- stoichiometry N [3]: 2

B2: Sp sgRNA (18 nt spacer) + dsDNA target with PAM (mixed)
DNA 1: GCACCTTACTGCAAGGTAGCCACGTTCAGTTGACCCAACGTCGCCGGCGTGCACAATCTAGATGCATCAGCTGC
DNA 2: GCAGCTGATGCATCTAGATTGTGCACGCCGGCGACGTTGGGTCAACTGAACGTGGCTACCTTGCAGTAAGGTGC
- binding result (dSpCas12f1 [4]): binds

B3: Sp sgRNA (18 nt spacer) + ssDNA target strand (mixed)
DNA: GCAGCTGATGCATCTAGATTGTGCACGCCGGCGACGTTGGGTCAACTGAACGTGGCTACCTTGCAGTAAGGTGC
- binding result (dSpCas12f1 [5]): binds

B4: As sgRNA + dsDNA target with PAM (mixed)
DNA 1: GCACCTTACTGCAAGGTAGCGTATTTAAGTTGACCCAACGTCGCCGGCGTGCACAATCTAGATGCATCAGCTGC
DNA 2: GCAGCTGATGCATCTAGATTGTGCACGCCGGCGACGTTGGGTCAACTTAAATACGCTACCTTGCAGTAAGGTGC
- binding result (dAsCas12f1 [6]): binds

B5: As sgRNA + ssDNA target strand (mixed)
DNA: GCAGCTGATGCATCTAGATTGTGCACGCCGGCGACGTTGGGTCAACTTAAATACGCTACCTTGCAGTAAGGTGC
- binding result (dAsCas12f1 [7]): binds

B6: SpCas12f1 sgRNA T1, 18 nt spacer (structured_RNA)
RNA: GGGAUUUACUCUGUUUCGCGCGCCAGGGCAGUUAGGUGCCCUAAAAGAGCGAAGUGGCCGAAAGGAAAGGCUAACGCUUCUCUAACGCUACGGCGACCUUGGCGAAAUGCCAUCAAUACCACGCGGCCCGAAAGGGUUCGCGCGAAACUGAGUAAUGAAAGUCGCAUCUUGCGUAAGCGCGUGGAUUGAAACAGUUGACCCAACGUCGCC
- binding result (dSpCas12f1 [8]): binds
